Target: TLR4 extracellular domain 24-631 (Homo sapiens, UniProt O00206)
Assay: solid phase binding assay

Sequence of TLR4 extracellular domain 24-631 (O00206 24-631): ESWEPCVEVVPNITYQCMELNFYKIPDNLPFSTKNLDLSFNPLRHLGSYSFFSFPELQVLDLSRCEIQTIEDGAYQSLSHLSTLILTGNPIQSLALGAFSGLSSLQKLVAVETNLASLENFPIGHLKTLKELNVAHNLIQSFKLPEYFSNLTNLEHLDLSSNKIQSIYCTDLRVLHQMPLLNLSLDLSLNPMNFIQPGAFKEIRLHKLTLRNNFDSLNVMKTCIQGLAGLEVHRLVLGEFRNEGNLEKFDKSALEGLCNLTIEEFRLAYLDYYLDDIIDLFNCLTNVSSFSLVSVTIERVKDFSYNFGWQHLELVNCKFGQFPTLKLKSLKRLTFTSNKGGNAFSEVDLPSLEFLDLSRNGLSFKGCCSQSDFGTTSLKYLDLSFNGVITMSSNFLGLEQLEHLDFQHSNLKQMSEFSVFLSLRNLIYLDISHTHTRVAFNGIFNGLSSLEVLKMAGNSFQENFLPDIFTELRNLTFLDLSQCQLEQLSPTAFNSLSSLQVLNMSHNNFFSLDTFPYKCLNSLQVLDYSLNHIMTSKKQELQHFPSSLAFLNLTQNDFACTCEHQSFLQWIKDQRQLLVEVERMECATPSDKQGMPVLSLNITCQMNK

Row | Kd [nM] | Binder
1 | ~55 | Tenascin-R FBG domain (FBG-R) 1128-1359 (protein) GGRVFPHPQDCAQHLMNGDTLSGVYPIFLNGELSQKLQVYCDMTTDGGGWIVFQRRQNGQTDFFRKWADYRVGFGNVEDEFWLGLDNIHRITSQGRYELRVDMRDGQEAAFASYDRFSVEDSRNLYKLRIGSYNGTAGDSLSYHQGRPFSTEDRDNDVAVTNCAMSYKGAWWYKNCHRTNLNGKYGESRHSQGINWYHWKGHEFSIPFVEMKMRPYNHRLMAGRKRQSLQF
2 | ~55 | Tenascin-W FBG domain (FBG-W) 1060-1300 (protein) VGARFPHPSDCSQVQQNSNAASGLYTIYLHGDASRPLQVYCDMETDGGGWIVFQRRNTGQLDFFKRWRSYVEGFGDPMKEFWLGLDKLHNLTTGTPARYEVRVDLQTANESAYAIYDFFQVASSKERYKLTVGKYRGTAGDALTYHNGWKFTTFDRDNDIALSNCALTHHGGWWYKNCHLANPNGRYGETKHSEGVNWEPWKGHEFSIPYVELKIRPHGYSREPVLGRKKRTLRGRLRTF

Source: paper PMC5693923 (2017)
